Laboratory results: publication PMC5651844, “YEATS2 links histone acetylation to tumorigenesis of non-small cell lung cancer” (Nature Communications, 2017)

Target: YEATS domain of human YEATS2 (aa 201-332), tag removed (human) (UniProt Q9ULM3)
Test: ITC; YEATS2_(201-332) titrated with histone peptides, 15 C, 20 mM Tris 7.5, 0.5 M sodium citrate, 5% glycerol, 2 mM beta-mercaptoethanol; one set of binding sites model

Sequence of YEATS domain of human YEATS2 (aa 201-332), tag removed (human) (Q9ULM3 201-332): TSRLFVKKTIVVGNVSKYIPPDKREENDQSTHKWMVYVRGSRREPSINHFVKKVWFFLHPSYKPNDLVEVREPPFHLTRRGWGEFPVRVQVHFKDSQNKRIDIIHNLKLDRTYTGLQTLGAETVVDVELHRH
Sequence of histone H3 P30A mutant peptide (peptide; modification not given) (chain, as listed by the source P30A): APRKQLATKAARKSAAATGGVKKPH

fold drop against the wild-type H3K27ac peptide: 2 fold
Substance: histone H3 P30A mutant peptide (peptide; modification not given)
